Measurements reported in article PMC11910552, “Regulation of acetyl-CoA biosynthesis via an intertwined acetyl-CoA synthetase/acetyltransferase complex” (Nature Communications, 2025).
Values belong to the molecule of their own block, whether it stands above or below them.

B3: Acetyl-CoA synthetase AcsA (Bacillus subtilis) (enzyme)
chain: MNLKALPAIEGDHNLKNYEETYRHFDWAEAEKHFSWHETGKLNAAYEAIDRHAESFRKNKVALYYKDAKRDEKYTFKEMKEESNRAGNVLRRYGNVEKGDRVFIFMPRSPELYFIMLGAIKIGAIAGPLFEAFMEGAVKDRLENSEAKVVVTTPELLERIPVDKLPHLQHVFVVGGEAESGTNIINYDEAAKQESTRLDIEWMDKKDGFLLHYTSGSTGTPKGVLHVHEAMIQQYQTGKWVLDLKEEDIYWCTADPGWVTGTVYGIFAPWLNGATNVIVGGRFSPESWYGTIEQLGVNVWYSAPTAFRMLMGAGDEMAAKYDLTSLRHVLSVGEPLNPEVIRWGHKVFNKRIHDTWWMTETGSQLICNYPCMDIKPGSMGKPIPGVEAAIVDNQGNELPPYRMGNLAIKKGWPSMMHTIWNNPEKYESYFMPGGWYVSGDSAYMDEEGYFWFQGRVDDVIMTSGERVGPFEVESKLVEHPAIAEAGVIGKPDPVRGEIIKAFIALREGFEPSDKLKEEIRLFVKQGLAAHAAPREIEFKDKLPKTRSGKIMRRVLKAWELNLPAGDLSTMED
notes: AcsA, acetyl-CoA synthetase of Bacillus subtilis; gene amplified from genomic DNA of strain 3610; catalytic lysine K549; the gene came from strain 3610; Monomer and dimer seen by mass photometry; also called Ac-CoA synthetase; source: E. coli BL21(DE3), purified (HisTrap, SEC)

Tests used:
[1] = biological target: T1, AcuA (Bacillus subtilis, UniProt P39065); test: isothermal titration calorimetry, one binding site model
T1 construct: monomer 21 kDa by mass photometry

[2] = biological target: B3; test: cell-based or functional assay
[3] = biological target: B3; test: pull-down; 200 μg GST-tagged protein immobilised on GST-Sepharose beads in spin columns, 200 μg partner added in SEC buffer (20 mM HEPES-Na pH 7.5, 200 mM NaCl, 20 mM KCl, 20 mM MgCl2), 30 min, three washes, elution with 20 mM GSH, Coomassie-stained SDS-PAGE; without Ac-CoA (also with 1 mM ATP, 1 mM AMP or 130 μM CoA, or with AcuB and AcuC added); details: both partners purified
[4] = substrate: CC(=O)O; test: purified protein; details: without AcuA; 1 mM CoA, ATP 2.5 mM or 2 mM, 0.1 mM DTT, room temperature
[5] = biological target: the molecule itself; test: mass photometry; TwoMP mass photometer, SEC buffer, 37.5 nM final protein concentration; proteins alone or 37.5 nM AcsA with 37.5 nM AcuA
[6] = biological target: T2, Acetyl-CoA synthetase AcsA (Bacillus subtilis) (Bacillus subtilis) (UniProt P39062)
T2 sequence: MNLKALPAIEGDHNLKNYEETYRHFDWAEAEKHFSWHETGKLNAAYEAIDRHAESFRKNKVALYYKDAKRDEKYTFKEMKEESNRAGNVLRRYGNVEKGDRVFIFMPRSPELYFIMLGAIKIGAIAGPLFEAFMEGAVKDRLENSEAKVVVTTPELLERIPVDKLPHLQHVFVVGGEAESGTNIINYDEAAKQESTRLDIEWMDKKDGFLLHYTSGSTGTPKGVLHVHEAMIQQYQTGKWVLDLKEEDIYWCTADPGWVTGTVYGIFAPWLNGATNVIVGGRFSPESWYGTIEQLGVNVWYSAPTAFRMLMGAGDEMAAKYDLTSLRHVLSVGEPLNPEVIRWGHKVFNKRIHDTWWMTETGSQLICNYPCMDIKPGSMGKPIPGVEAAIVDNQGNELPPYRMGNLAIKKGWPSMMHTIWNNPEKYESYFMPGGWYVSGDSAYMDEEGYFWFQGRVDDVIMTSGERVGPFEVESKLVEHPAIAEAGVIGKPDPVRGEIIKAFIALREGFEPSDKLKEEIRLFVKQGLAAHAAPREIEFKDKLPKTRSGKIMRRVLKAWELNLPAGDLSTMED

B1: GCN5-related N-acetyltransferase AcuA (Bacillus subtilis) (enzyme)
chain: MEHHKTYHSANIKTATGSLLIEGPVSPEDLAGYEFHKDLTAFRPPREQHEALVDIAGLPEGRIIIARDGRTIVGYVTYLYPDPLERWSEGNMEDLIELGAIEVAPDYRGCAVGKTLLTVSMMDEQMENYIVMTTEYYWHWDLKGMKKDVWEYRKIMEKMMNAGGLVWFATDEPEISSHPANCLMARIGKNVSQESIEQFDRLRFYHRYMY
Vmax of Ac-CoA production by AcsA (HPLC) at AcsA:AcuA ratios 1:0.5, 1:1, 1:2, 1:5: 1834 down to 390 nmol mg^−1 min^−1 (without AcuA 2167) [2]: 1830 nmol/mg/min

B2: GST-AcuA_E102Q (enzyme, Bacillus subtilis)
chain: MEHHKTYHSANIKTATGSLLIEGPVSPEDLAGYEFHKDLTAFRPPREQHEALVDIAGLPEGRIIIARDGRTIVGYVTYLYPDPLERWSEGNMEDLIELGAIQVAPDYRGCAVGKTLLTVSMMDEQMENYIVMTTEYYWHWDLKGMKKDVWEYRKIMEKMMNAGGLVWFATDEPEISSHPANCLMARIGKNVSQESIEQFDRLRFYHRYMY
notes: source: E. coli BL21(DE3), purified
binding result [3]: binds

Molecule: B3
Km [4]: 430 µM
Vmax [4]: 2.17 µmol/min/mg
stoichiometry N [5]: 2

Further lines, results first:

Kd [1]: 9.47 ± 0.51 µM
Molecule: CC(=O)SCCNC(=O)CCNC(=O)[C@H](O)C(C)(C)COP(=O)(O)OP(=O)(O)OC[C@H]1O[C@@H](n2cnc3c(N)ncnc32)[C@H](O)[C@@H]1OP(=O)(O)O [Ac-CoA]

AcsA activity (HPLC) with 0-1 mM AcuA C-terminus peptide; reduction of activity at 1 mM [6]: 90%
Molecule: RLRFYHRYMY [AcuA C-terminus peptide (201-…-210)]
